Results: publication PMC12144180 (Nature Communications, 2025)
Blank lines part the entries; values can stand above or below the binder they belong to.

Target: T1, RNA polymerase I subunit A135 (S. cerevisiae, UniProt P22138 1-1203)
T1 sequence: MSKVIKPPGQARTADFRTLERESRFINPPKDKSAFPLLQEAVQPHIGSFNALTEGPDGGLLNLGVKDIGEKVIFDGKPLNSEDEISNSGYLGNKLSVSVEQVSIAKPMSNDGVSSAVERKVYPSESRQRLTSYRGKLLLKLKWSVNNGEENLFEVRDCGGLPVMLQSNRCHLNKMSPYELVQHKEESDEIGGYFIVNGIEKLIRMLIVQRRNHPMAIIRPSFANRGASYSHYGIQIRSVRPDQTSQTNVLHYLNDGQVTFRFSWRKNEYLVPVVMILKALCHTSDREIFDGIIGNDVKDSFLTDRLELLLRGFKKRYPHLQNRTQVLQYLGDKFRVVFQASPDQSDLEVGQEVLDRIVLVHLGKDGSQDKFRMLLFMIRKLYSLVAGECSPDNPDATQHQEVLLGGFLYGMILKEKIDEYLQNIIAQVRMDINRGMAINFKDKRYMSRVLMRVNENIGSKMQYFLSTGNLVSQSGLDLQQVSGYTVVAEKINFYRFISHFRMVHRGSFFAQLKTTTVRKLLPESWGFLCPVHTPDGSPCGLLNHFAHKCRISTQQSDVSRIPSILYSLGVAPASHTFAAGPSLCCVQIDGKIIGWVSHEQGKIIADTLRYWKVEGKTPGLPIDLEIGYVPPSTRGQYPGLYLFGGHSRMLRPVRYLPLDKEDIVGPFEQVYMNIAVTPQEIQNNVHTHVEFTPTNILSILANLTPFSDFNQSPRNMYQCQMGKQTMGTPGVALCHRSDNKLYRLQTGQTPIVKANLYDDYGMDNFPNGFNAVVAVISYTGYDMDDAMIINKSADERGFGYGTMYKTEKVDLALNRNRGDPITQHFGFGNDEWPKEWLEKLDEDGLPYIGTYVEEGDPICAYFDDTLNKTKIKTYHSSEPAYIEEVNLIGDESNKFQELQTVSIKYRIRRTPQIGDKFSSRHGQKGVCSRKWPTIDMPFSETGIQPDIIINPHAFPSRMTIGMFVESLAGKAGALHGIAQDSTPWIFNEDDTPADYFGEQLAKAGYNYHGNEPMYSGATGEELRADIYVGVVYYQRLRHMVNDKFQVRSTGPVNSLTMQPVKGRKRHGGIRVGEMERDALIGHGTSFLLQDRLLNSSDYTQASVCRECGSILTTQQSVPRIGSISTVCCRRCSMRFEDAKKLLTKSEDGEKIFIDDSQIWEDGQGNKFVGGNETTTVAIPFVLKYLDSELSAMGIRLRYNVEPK
Assay: cryo-EM structure

binding result: binds
B1: RNA polymerase I subunit A12 (natural protein)
chain: MSVVGSLIFCLDCGDLLENPNAVLGSNVECSQCKAIYPKSQFSNLKVVTTTADDAFPSSLRAKKSVVKTSLKKNELKDGATIKEKCPQCGNEEMNYHTLQLRSADEGATVFYTCTSCGYKFRTNN

binding result: binds
B2: A49/A34.5 heterodimer of RNA polymerase I (complex)
chain 1: MSVKRSVSEIEIESVQDQPSVAVGSFFKGFRAPSDTTFDLYKKKKSEKDEFVLHGENERLEYEGYTDSSSQASNQYVVGLFNPEKKSIQLYKAPVLVSKVVSKSSKNLRGPKIKSKSDTRPSALRNALGEAFGTKKAKKAIADLERNRIDSDKLTDSAIDIVDSVRTASKDLPTRAQLDEITSNDRPTPLANIDATDVEQIYPIESIIPKKELQFIRVSSILKEADKEKKLELFPYQNNSKYVAKKLDSLTQPSQMTKLQLLYYLSLLLGVYENRRVNNKTKLLERLNSPPEILVDGILSRFTVIKPGQFGRSKDRSYFIDPQNEDKILCYILAIIMHLDNFIVEITPLAHELNLKPSKVVSLFRVLGAIVKGATVAQAEAFGIPKSTAASYKIATMKVPFKLPEMTRRGRGPRR
chain 2: MSKLSKDYVSDSDSDDEVISNEFSIPDGFKKCKHLKNFPLNGDNKKKAKQQQVWLIKFPSNVDISKLKSLPVDFESSTTMTIDKHDYKIMDDTDIESSLTQDNLSNMTLLVPSESKESLKIASTAKDNAPLQFDKVFSVSETAKIPAIDYSKVRVPRKDVPKVEGLKLEHFATGYDAEDFHVAEEVKENKKEPKKRSHHDDEEESSEKKKKKKEKREKREKKDKKDKKKKHRD
